In patent US20240034783A1:

What follows are binders tested against CLDN18.2 expressed in mouse healthy stomach tissue (mouse) (UniProt P56857) (assay: flow cytometry, live cells from healthy mouse stomach, antibody 4 µg/ml).

Binder	% of positive healthy stomach cells (Average) [%]	% of positive healthy stomach cells (Mouse 1) [%]	% of positive healthy stomach cells (Mouse 2) [%]
hCl1a (antibody, human IgG1, kappa, V domains shown) VH: QVQLVQSGAEVKKPGASVKVSCKASGYTFTDYAMHWVRQAPGQRLEWMGWINTYTGKPTYAQKFQGRVTITRDTSASTAYMELSSLRSEDTAVYYCARAVFYGYTMDAWGQGTLVTVSS VL: DIQMTQSPSSLSASVGDRVTITCRASEDIYSNLAWYQQKPGKAPKLLIFSVKRLQDGVPSRFSGSGSGTDFTLTISSLQPEDFATYYCLQGSNFPLTFGQGTKVEIKR	0.75	1.2	0.3
hCl1b (antibody, human IgG1, kappa, V domains shown) VH: QVQLVQSGAEVKKPGASVKVSCKASGYTFTDYAMHWVRQAPGQRLEWMGWINTYTGKPTYSQKFQGRVTITRDTSASTAYMELSSLRSEDTAVYYCARAVFYGYTMDAWGQGTLVTVSS VL: DIQMTQSPSSLSASVGDRVTITCRASEDIYSNLAWYQQKPGKAPKLLIFSVKRLQDGVPSRFSGSGSGTDFTLTISSLQPEDFATYYCLQGSNFPLTFGQGTKVEIKR	0.565	1	0.13
cCl1-1 (antibody, V domains shown) VH: QIQLVQSGPELKKPGESVKISCKASGYTFTDYAMHWVKQAPGKGLKWMGWINTYTGKPTYADDFKGRFVFSLEASASTANLQISNLKNEDTATYFCARAVFYGYTMDAWGQGTSVTVSS VL: DIQMTQSPASLSASLGETISIACRASEDIYSNLAWYQQKSGKSPQLLIFSVKRLQDGVPSRFSGSGSGTQYSLKISGMQPEDEGDYFCLQGSNFPLTFGSGTKLEIK	0.35	0.4	0.3

Results, then the binder that gave them:

% of positive healthy stomach cells (Average) [%]	% of positive healthy stomach cells (Mouse 1) [%]	% of positive healthy stomach cells (Mouse 2) [%]	Binder
0.07	0.04	0.1	hCl1f (antibody, human IgG1, kappa, V domains shown) VH: QVQLVQSGAEVKKPGASVKVSCKASGYTFTDYAMHWVRQAPGQRLEWMGWINAYTGKPTYAQKFQGRVTITRDTSASTAYMELSSLRSEDTAVYYCARAVFYGYTMDAWGQGTLVTVSS VL: DIQMTQSPSSLSASVGDRVTITCRASEDIYSNLAWYQQKPGKAPKLLIYSVKRLQDGVPSRFSGSGSGTDFTLTISSLQPEDFATYYCLQGSNFPLTFGQGTKVEIKR
0.25	0.1	0.4	hCl1c (antibody, human IgG1, kappa, V domains shown) VH: QVQLVQSGAEVKKPGASVKVSCKASGYTFTDYAMHWVRQAPGQRLEWMGWINTYTGKPTYSQKFQGRVTITRDTSASTAYMELSSLRSEDTAVYYCARAVFYGYTMDAWGQGTLVTVSS VL: DIQMTQSPSSLSASVGDRVTITCRTSEDIYSNLAWYQQKPGKAPKLLIFAIKRLQDGVPSRFSGSGSGTDFTLTISSLQPEDFATYYCLQGSKFPLTFGQGTKVEIKR
